Literature values in paper PMC2943937.

Molecular target: CAR (Mus musculus) (UniProt P97792)
Chain of UniProt P97792 (P97792 20-237): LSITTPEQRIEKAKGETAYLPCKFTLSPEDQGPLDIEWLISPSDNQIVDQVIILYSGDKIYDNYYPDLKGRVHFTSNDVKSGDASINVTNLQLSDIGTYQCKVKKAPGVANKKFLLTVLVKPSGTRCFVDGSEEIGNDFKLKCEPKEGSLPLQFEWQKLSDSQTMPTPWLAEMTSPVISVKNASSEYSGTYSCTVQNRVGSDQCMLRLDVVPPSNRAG

JAML (from UniProt Q80UL9)
Kd: 5 µM
